Reference: patent publication US20230265151A1, “GIP/GLP1 CO-AGONIST COMPOUNDS” (priority 2020, published 2023)
Where two headings read alike, the source gives them in different places.

Legend:
[1] = biological target: T1, human GLP-1 receptor (hGLP-1R) (Homo sapiens, UniProt P43220); assay: [125I]-GLP-1 binding, SPA with membranes of HEK293 cells expressing hGLP-1R; conditions: human GLP-1R; geometric mean (SEM, n); read-out: Binding Affinity Ki, nM (SEM, n) hGLP-1R
T1 construct: expressed in transfected cells; crude membranes
T1 sequence (P43220 24-463): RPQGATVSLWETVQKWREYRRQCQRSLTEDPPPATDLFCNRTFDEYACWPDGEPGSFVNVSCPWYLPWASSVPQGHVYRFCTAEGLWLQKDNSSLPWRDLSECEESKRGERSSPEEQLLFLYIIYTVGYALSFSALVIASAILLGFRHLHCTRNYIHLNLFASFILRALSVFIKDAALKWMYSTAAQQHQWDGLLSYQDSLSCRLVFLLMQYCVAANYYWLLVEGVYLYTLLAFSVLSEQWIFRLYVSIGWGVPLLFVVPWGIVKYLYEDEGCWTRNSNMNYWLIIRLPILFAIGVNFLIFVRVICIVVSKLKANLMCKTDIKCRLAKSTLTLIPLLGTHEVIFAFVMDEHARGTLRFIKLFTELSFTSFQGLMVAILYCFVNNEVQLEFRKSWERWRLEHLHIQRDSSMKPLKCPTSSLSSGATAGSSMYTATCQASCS
Experimental: Two methods are used for the preparation of crude cell membranes.
Method 1: Frozen cell pellets are lysed on ice in hypotonic buffer containing 50 mM Tris HCl, pH 7.5, and Roche Complete™ Protease Inhibitors with EDTA. […] The homogenate is centrifuged at 4° C. at 1100 × g for 10 minutes. The supernatant is collected and stored on ice while the pellets are resuspended in homogenization buffer and rehomogenized as described above. The homogenate is centrifuged at 1100 × g for 10 minutes. The second supernatant is combined with the first supernatant and centrifuged at 35000 × g for 1 hour at 4° C. The resulting membrane pellet is resuspended in homogenization buffer containing protease inhibitors at approximately 1 to 3 mg/mL, quick frozen in liquid nitrogen and stored as aliquots in a -80° C. freezer until use.
The homogenate is centrifuged at 4° C. at 1800 × g for 15 minutes. The supernatant is collected and stored on ice while the pellets are resuspended in homogenization buffer (without DNAse I) and rehomogenized as described above. The homogenate is centrifuged at 1800 × g for 15 minutes. The second supernatant is combined with the first supernatant and centrifuged an additional time at 1800 × g for 15 minutes. The overall supernatant is then centrifuged at 25000 × g for 30 minutes at 4° C. The resulting membrane pellet is resuspended in homogenization buffer (without DNAse I) containing protease inhibitors at approximately 1 to 3 mg/mL and stored as aliquots in a -80° C. freezer until use.
The human GLP-1 receptor binding assay is performed using an SPA format with WGA beads. The binding buffer contains 25 mM HEPES, pH 7.4, 2.5 mM CaCl2, 1 mM MgCl2, 0.1% (w/v) bacitracin, 0.003% (w/v) TWEEN®-20, and Roche Complete™ Protease Inhibitors without EDTA.
Raw CPM data for concentration curves of peptides, Gcg, GLP-1, or GIP are converted to percent inhibition by subtracting nonspecific binding (binding in the presence of excess unlabeled Gcg, GLP-1, or GIP, respectively) from the individual CPM values and dividing by the total binding signal, also corrected by subtracting nonspecific binding. Data are analyzed using four-parameter (curve maximum, curve minimum, IC50, Hill slope) nonlinear regression routines (Genedata Screener, version 12.0.4, Genedata AG, Basal, Switzerland). […] Values for Ki are reported as the geometric mean, with error expressed as the standard error of the mean (SEM) and n is equal to the number of independent replicates (determined in assays performed on different days). Geometric Means are calculated as follows: […]
The Ki Ratio (Ki for native control peptide/Ki for test compound) at each receptor and each species is calculated. The Ki Ratio is a rapid indication of the apparent affinity of a peptide compared to the native control peptide.
n=⅟x means that only one value out of the total number of replicates (x) is used to express the mean. SEM is only calculated when n=2 or greater non-qualified results exist. Means are expressed as GeoMetric means with the standard error of the mean (SEM) and the number of replicates (n) indicated in parenthesis.

[2] = biological target: T2, hGIPR (Homo sapiens, UniProt P48546); assay: Functional cAMP formation (HTRF) in HEK-293 clonal cells expressing hGIPR, 0.1% bovine casein, without or with 1.0% human serum albumin; assay type: cell-based; conditions: for EC50: geometric mean, read-out: hGIPR EC50, nM (SEM, n); for Emax: read-out: hGIPR Emax, % ± SEM
T2 construct: expressed in transfected cells
T2 sequence (P48546 22-466): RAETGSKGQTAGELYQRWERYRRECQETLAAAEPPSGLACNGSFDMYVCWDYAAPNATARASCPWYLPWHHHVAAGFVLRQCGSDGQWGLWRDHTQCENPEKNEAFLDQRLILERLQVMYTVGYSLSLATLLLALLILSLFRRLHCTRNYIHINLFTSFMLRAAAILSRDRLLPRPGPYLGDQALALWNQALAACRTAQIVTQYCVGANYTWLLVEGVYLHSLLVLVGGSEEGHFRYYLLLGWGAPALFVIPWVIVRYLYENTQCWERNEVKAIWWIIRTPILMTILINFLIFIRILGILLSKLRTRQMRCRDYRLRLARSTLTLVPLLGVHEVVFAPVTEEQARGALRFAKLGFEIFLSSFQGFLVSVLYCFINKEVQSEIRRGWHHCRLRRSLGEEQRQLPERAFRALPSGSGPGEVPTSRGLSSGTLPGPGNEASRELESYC
How it was run: (§1)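 Cells were stimulated with peptide for 30 min at 37° C, then lysed in buffer carrying cAMP-d2 and anti-cAMP Eu3+-cryptate for a competitive HTRF read after at least 60 min at room temperature. The 665/620 nm ratio was converted to nM cAMP against a standard curve.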

[3] = biological target: T3, hGCGR (Homo sapiens, UniProt P47871); assay: Functional cAMP formation (HTRF) in HEK-293 clonal cells expressing hGCGR, 0.1% bovine casein, without or with 1.0% human serum albumin; assay type: cell-based; conditions: geometric mean, read-out: hGCGR EC50, nM (SEM, n)
T3 construct: expressed in transfected cells
T3 sequence (P47871 26-477): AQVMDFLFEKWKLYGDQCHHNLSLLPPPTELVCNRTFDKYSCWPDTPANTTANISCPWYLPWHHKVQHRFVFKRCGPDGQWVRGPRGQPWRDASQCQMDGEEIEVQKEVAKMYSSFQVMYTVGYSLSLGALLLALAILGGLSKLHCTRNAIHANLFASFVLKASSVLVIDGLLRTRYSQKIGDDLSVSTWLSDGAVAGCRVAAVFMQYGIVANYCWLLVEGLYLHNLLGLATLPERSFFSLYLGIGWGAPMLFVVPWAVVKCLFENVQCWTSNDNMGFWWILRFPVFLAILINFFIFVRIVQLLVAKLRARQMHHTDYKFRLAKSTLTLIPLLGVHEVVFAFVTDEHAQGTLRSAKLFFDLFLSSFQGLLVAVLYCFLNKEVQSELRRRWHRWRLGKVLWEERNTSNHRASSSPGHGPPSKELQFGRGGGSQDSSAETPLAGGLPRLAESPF
How it was run: as §1

[4] = biological target: hGLP-1R (Homo sapiens, UniProt P43220); assay: Functional cAMP formation (HTRF) in HEK-293 clonal cells expressing hGLP-1R, 0.1% bovine casein, without or with 1.0% human serum albumin; assay type: cell-based; set-up: expressed in transfected cells; conditions: for EC50: geometric mean, read-out: hGLP-1R EC50, nM (SEM, n); for Emax: read-out: hGLP-1R Emax, % ± SEM
Chain of hGLP-1R (P43220 24-463): as the sequence (P43220 24-463) above
How it was run: as §1

[5] = biological target: T4, human GIP receptor (human, UniProt P48546 22-466); assay: cell-based or functional assay
T4 sequence (looked up): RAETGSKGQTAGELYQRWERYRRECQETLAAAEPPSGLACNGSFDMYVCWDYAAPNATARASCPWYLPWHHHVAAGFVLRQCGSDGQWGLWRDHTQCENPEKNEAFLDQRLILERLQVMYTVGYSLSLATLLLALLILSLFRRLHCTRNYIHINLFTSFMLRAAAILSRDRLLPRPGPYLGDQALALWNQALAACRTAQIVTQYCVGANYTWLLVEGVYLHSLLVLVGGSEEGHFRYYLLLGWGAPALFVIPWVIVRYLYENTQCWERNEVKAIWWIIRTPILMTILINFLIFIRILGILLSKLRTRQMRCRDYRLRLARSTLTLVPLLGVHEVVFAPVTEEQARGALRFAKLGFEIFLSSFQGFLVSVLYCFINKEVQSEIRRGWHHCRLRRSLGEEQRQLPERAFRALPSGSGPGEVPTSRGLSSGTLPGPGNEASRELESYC

[6] = biological target: human GLP-1 receptor (human, UniProt P43220 24-463); assay: cell-based or functional assay
[7] = biological target: human glucagon receptor (human, UniProt P47871 26-477); assay: cell-based or functional assay
[8] = 0.1% bovine casein and 1.0% human serum albumin, 37° C.
[9] = cAMP, incubated at 37° C., 0.1% bovine casein (no human serum albumin)

| Molecule | cAMP EC50 (1.0% HSA) [5] [nM] | cAMP Emax (1.0% HSA) [5] [%] | cAMP EC50 (1.0% HSA) [6] [nM] | cAMP Emax (1.0% HSA) [6] [%] | cAMP EC50 (1.0% HSA) [7] [nM] | also measured |
| --- | --- | --- | --- | --- | --- | --- |
| CC[C@H](C)[C@H](NC(=O)[C@H](CCCN)NC(=O)[C@H](CC(=O)O)NC(=O)[C@H](CC(C)C)NC(=O)[C@](C)(CC(C)C)NC(=O)[C@@H](NC(=O)[C@H](CO)NC(=O)[C@H](Cc1ccncc1)NC(=O)[C@H](CC(=O)O)NC(=O)[C@H](CO)NC(=O)[C@@H](NC(=O)[C@](C)(Cc1ccccc1F)NC(=O)[C@@H](NC(=O)CNC(=O)[C@H](CCC(=O)O)NC(=O)C(C)(C)NC(=O)[C@@H](N)Cc1ccc(O)cc1)[C@@H](C)O)[C@@H](C)O)[C@@H](C)CC)C(=O)N[C@@H](C)C(=O)N[C@@H](CCC(N)=O)C(=O)NC(C)(C)C(=O)N[C@@H](CCCCNC(=O)COCCOCCNC(=O)COCCOCCNC(=O)CC[C@H](NC(=O)CCCCCCCCCCCCC(=O)O)C(=O)O)C(=O)N[C@@H](Cc1ccccc1)C(=O)N[C@H](C(=O)N[C@H](CCC(=O)O)C(=O)N[C@@](C)(Cc1ccc(O)cc1)C(=O)N[C@@H](CC(C)C)C(=O)N[C@H](C(=O)N[C@@H](CCCCNC(=O)COCCOCCNC(=O)COCCOCCNC(=O)CC[C@H](NC(=O)CCCCCCCCCCCCC(=O)O)C(=O)O)C(=O)NCC(=O)NCC(=O)N1CCC[C@H]1C(=O)N[C@@H](CO)C(=O)N[C@@H](CO)C(=O)NCC(=O)N[C@@H](C)C(=O)N1CCC[C@H]1C(=O)N1CCC[C@H]1C(=O)N1CCC[C@H]1C(=O)N[C@@H](CO)C(N)=O)[C@@H](C)CC)[C@@H](C)CC [Example 73] |  |  |  |  |  | Ki [1]: 3.38 nM; EC50 [2, 8]: 2.16 nM; Emax ([2]; HEK293, 0.1% bovine casein and 1.0% human serum albumin, 37° C., percent of maximal response to GIP(1-42)NH2): 80.2%; Emax ([2]; HEK293, percent of maximal response to GIP(1-42)NH2, 37° C., 0.1% bovine casein, arithmetic mean): 97.1 ± 2.7%; EC50 [2, 9]: 0.0207 nM; EC50 [3, 8]: > 9950 nM; EC50 [3, 9]: > 9950 nM; EC50 [4, 8]: 56.2 nM; Emax ([4]; HEK293, 0.1% bovine casein and 1.0% human serum albumin, 37° C., percent of maximal response to GLP-1(7-36)NH2): 109%; EC50 [4, 9]: 0.437 nM |
| CCCCCCCCCCCCCCCC(=O)N[C@@H](CCC(=O)NCCOCCOCC(=O)NCCOCCOCC(=O)NCCCC[C@H](NC(=O)CNC(=O)CNC(=O)[C@H](CCC(=O)O)NC(=O)[C@@H](NC(=O)[C@H](CC(C)C)NC(=O)[C@](C)(Cc1ccc(O)cc1)NC(=O)[C@@H](CCC(=O)O)NC(=O)[C@@H](NC(=O)[C@H](Cc1ccccc1)NC(=O)[C@H](CCC(=O)O)NC(=O)C(C)(C)NC(=O)[C@H](CCC(N)=O)NC(=O)[C@H](C)NC(=O)[C@H](CCCCNC(=O)COCCOCCNC(=O)COCCOCCNC(=O)CC[C@H](NC(=O)CCCCCCCCCCCCCCC)C(=O)O)NC(=O)[C@H](CCCN)NC(=O)[C@H](CC(=O)O)NC(=O)[C@H](CC(C)C)NC(=O)[C@](C)(CC(C)C)NC(=O)[C@@H](NC(=O)[C@H](CO)NC(=O)[C@H](Cc1ccncc1)NC(=O)[C@H](CC(=O)O)NC(=O)[C@H](CO)NC(=O)[C@@H](NC(=O)[C@](C)(Cc1ccccc1F)NC(=O)[C@@H](NC(=O)CNC(=O)[C@H](CCC(=O)O)NC(=O)C(C)(C)NC(=O)[C@@H](N)Cc1ccc(O)cc1)[C@@H](C)O)[C@@H](C)O)[C@@H](C)CC)[C@@H](C)CC)[C@@H](C)CC)C(=O)N[C@@H](CO)C(=O)N[C@@H](CO)C(=O)NCC(=O)N[C@@H](C)C(=O)N1CCC[C@H]1C(=O)N1CCC[C@H]1C(=O)N1CCC[C@H]1C(=O)N[C@@H](CO)C(N)=O)C(=O)O [Example 7] |  |  |  |  |  | Ki [1]: 0.362 nM; EC50 [2, 8]: 0.566 nM; EC50 [4, 8]: 2.74 nM; Emax ([4]; HEK293, percent of maximal response to GLP-1(7-36)NH2, 37° C., 0.1% bovine casein, arithmetic mean): 95.4 ± 5.03% |
| YXEGTXTSDXXIXLDXKAQXEFIXXLIEGGKSSGAPPPS (Aib2, αMeF(2F)6, 4Pal10, Ac5c11, αMeL13, Orn16, Aib20, D-Glu24, αMeY25; acylated K17, K31 (groups as in name); C-terminal amide) | 2.16 | 64.5 | 94.2 | 99 | > 9950 |  |
| YXEGTXTSDXXIXLDXKAQXEFIXXLIEGGKSSGAPPPS (Aib2, αMeF(2F)6, 4Pal10, αMeS11, αMeL13, Orn16, Aib20, D-Glu24, αMeY25; acylated K17, K31 (groups as in name); C-terminal amide) | 4.38 | 95.6 | 40.3 | 102 | > 9950 |  |
| YXEGTXTSDXXIXLDXIAQXKFIKXLIEGGPSSGAPPPS (Aib2, αMeF(2F)6, 4Pal10, αMeS11, αMeL13, Orn16, Aib20, αMeY25; acylated K21, K24 (groups as in name); C-terminal amide) | 0.925 | 91.3 | 14.8 | 107 | > 9950 |  |
| YXEGTXTSDXXIXLDXIAQXEFIKXLIKGGPSSGAPPPS (Aib2, αMeF(2F)6, 4Pal10, αMeS11, αMeL13, Orn16, Aib20, αMeY25; acylated K24, K28 (groups as in name); C-terminal amide) | 5.31 | 63.4 | 32.3 | 117 | > 9950 |  |
| YXEGTXTSDXXIXLDXIAQXKFIXXLIKGGPSSGAPPPS (Aib2, αMeF(2F)6, 4Pal10, αMeS11, αMeL13, Orn16, Aib20, D-Glu24, αMeY25; acylated K21, K28 (groups as in name); C-terminal amide) | 7.84 | 62.7 | 87.8 | 118 | > 9950 |  |
